{"source": "paper PMC8894350", "about": "“Mechanism of cooperative N-glycan processing by the multi-modular endoglycosidase EndoE” (Nature Communications, 2022)", "key": {"[1]": {"target": "T1, EndoE-GH18L (Enterococcus faecalis, UniProt Q6U890)", "T1 construct": "gene ndoE; GH18 domain plus linker region (3HB-1, 3HB-2), residues 56-486; GST tag cut by TEV (GSG linker); E. coli BL21(DE3)", "T1 sequence (Q6U890 entry or part of it)": "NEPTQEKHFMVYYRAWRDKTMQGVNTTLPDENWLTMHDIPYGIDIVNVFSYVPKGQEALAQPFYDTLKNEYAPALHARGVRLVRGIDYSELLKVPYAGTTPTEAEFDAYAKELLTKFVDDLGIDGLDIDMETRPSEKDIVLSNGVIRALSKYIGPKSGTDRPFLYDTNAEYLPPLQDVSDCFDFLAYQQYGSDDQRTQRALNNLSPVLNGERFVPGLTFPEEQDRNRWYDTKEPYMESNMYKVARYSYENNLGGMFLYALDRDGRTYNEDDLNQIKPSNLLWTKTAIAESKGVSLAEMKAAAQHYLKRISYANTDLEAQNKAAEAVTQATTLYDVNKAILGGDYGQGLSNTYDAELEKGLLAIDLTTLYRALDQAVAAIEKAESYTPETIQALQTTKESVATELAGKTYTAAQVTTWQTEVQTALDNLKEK", "experiment": "X-ray crystal structure of the complex, […] Å", "format": "binding", "conditions": "co-crystallised with 2.5 mM Man5GlcNAc; pH 6.5 Bis-Tris propane; GH18 active-site groove"}, "[2]": {"system": "CC(=O)N[C@H]1[C@H](Oc2ccc([N+](=O)[O-])cc2)O[C@H](CO)[C@@H](O)[C@@H]1O", "experiment": "purified protein", "format": "biochemical, Enterococcus faecalis", "conditions": "PCTP buffer pH 8, 5 nM enzyme, 0.09-12 mM substrate, isolated GH20 domain"}, "[3]": {"system": "CC(=O)N[C@H]1[C@H](Oc2ccc([N+](=O)[O-])cc2)O[C@H](CO)[C@@H](O)[C@@H]1O", "experiment": "purified protein", "conditions": "PCTP buffer pH 8, 5 nM enzyme, 0.09-12 mM substrate, GH20 active site within full-length EndoE"}}, "data": [{"molecule": "CC(=O)N[C@H]1C(O)O[C@H](CO)[C@@H](O[C@@H]2O[C@H](CO[C@H]3O[C@H](CO[C@H]4O[C@H](CO)[C@@H](O)[C@H](O)[C@@H]4O)[C@@H](O)[C@H](O[C@H]4O[C@H](CO)[C@@H](O)[C@H](O)[C@@H]4O)[C@@H]3O)[C@@H](O)[C@H](O[C@H]3O[C@H](CO)[C@@H](O)[C@H](O)[C@@H]3O)[C@@H]2O)[C@@H]1O", "note": "(some centres unmarked) [Man5, Man5GlcNAc]", "values": [{"measurement": "X-ray crystal structure of the complex, 2.6 Å", "setting": "[1]", "value": "crystal structure of EndoE-GH18L in complex with the Man5GlcNAc (Man5) product"}]}, {"molecule": "EndoE-GH20 (Enterococcus faecalis)", "values": [{"measurement": "Km", "setting": "[2]", "value": 0.97, "unit": "mM"}, {"measurement": "kcat", "setting": "[2]", "value": 86, "unit": "s⁻¹"}]}, {"molecule": "EndoE (Enterococcus faecalis)", "values": [{"measurement": "Km", "setting": "[3]", "value": 0.45, "unit": "mM"}, {"measurement": "kcat", "setting": "[3]", "value": 41, "unit": "s⁻¹"}]}]}
